Here are results for 84 variants from the RNAGym collection of RNA variant scans (doi:10.1093/molbev/msab373).

First the molecules themselves.
B1: Azoarcus group I ribozyme (parent)
chain: GUGCCUUGCGCCGGGAAACCACGCAAGGGAUGGUGUCAAAUUCGGCGAAACCUAAGCGCCCGCCCGGGCGUAUGGCAACGCCGAGCCAAGCUUCGGCGCCUGCGCCGAUGAAGGUGUAGAGACUAGACGGCACCCACCUAAGGCAAACGCUAUGGUGAAGGCAUAGUCCAGGGAGUGGCGAAAGUCACACAAACCGG

In this data set the parent is B1. Kind of data set: reverse-splicing fitness (ratio to wild type); higher = more active; in vitro selection; Mg2+ level not given. The method, boiled down:
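An in vitro group I ribozyme library with randomized positions was T7-transcribed and gel-purified. In triplicate, 10 pmol RNA in EPPS pH 7.5 was reacted with 50 pmoles of a 30-nt RNA substrate for 1 h at 37 °C across several added MgCl2 levels (1–48 mM), then stopped with EDTA. Products were reverse transcribed from a substrate-complementary primer, PCR-amplified and sequenced (HiSeq 4000). Fitness is a variant's read proportion after selection over that before, normalised to wild type.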
With C82U A111C A145C C150A C169G U176G, the reverse-splicing fitness is 0.00743.

As to C82U A120U A145U C150U C169U U176C, the reverse-splicing fitness was determined as 0.00368.

In the case of C82U A120C A145U C169U U176C, the reverse-splicing fitness amounted to 0.0155.

For C82A A111U A120G A145U C150U C169U, the reverse-splicing fitness stood at 0.00891.

In the case of C82U A111C A120G A145C C150U U176A, the reverse-splicing fitness is 0.00933.

Consider C82U A120U C150A U176A, for which the reverse-splicing fitness was 0.00756.

Take C82A A111G A120U A145C C150G C169A: the reverse-splicing fitness was determined as 0.0025.

As for C82U A111G A120C A145U, the reverse-splicing fitness turned out to be 0.0519.

For the variant C82U A111G A120U A145C C150A C169A U176A, the reverse-splicing fitness was 0.00213.

A111C A120G A145C C169U U176C: the reverse-splicing fitness was 0.0394.

For the variant C82U A111U A120C A145G U176A, the reverse-splicing fitness came to 0.0152.

With C82U A111G A120U A145U C169U, the reverse-splicing fitness came out at 0.00467.

In the case of C82U A111G A120G C150A C169A U176A, the reverse-splicing fitness was found to be 0.0173.

As for C82A A111U A120G A145C C150G U176G, the reverse-splicing fitness came out at 0.00318.

Turning to C82U A111G A120G A145G C169A U176A, the reverse-splicing fitness turned out to be 0.0215.

Take C82A A111C A120C A145C C150G C169G U176G: the reverse-splicing fitness was 0.00702.

C82A A120G A145C C150U C169G U176C: the reverse-splicing fitness was 0.0116.

A111U A120U C150A C169G: the reverse-splicing fitness came to 0.00631.

Take A111U A120U C150A C169A: the reverse-splicing fitness turned out to be 0.00436.

In the case of C82A A111C A120U C150A C169G U176A, the reverse-splicing fitness is 0.00598.

With C82U A111G A120C A145C U176C, the reverse-splicing fitness worked out at 0.0213.

Consider C82A A120U C150U C169G U176C, for which the reverse-splicing fitness is 0.00363.

Turning to C82G A111C A120U A145G C150G C169G U176A, the reverse-splicing fitness is 0.00983.

For the variant A120U A145C C169A U176C, the reverse-splicing fitness was 0.00401.

Consider C82G A111G A120C A145C U176C, for which the reverse-splicing fitness came to 0.035.

As for C82A A120U C150A C169A U176A, the reverse-splicing fitness amounted to 0.00388.

Turning to A111G A120G A145U C150U, the reverse-splicing fitness turned out to be 0.19.

Regarding C82A A111U A120G A145G C150U, the reverse-splicing fitness is 0.0133.

Take A120U A145C C150A C169A U176C: the reverse-splicing fitness came to 0.00175.

On to C82G A120U A145C C150U C169A U176A, for which the reverse-splicing fitness came out at 0.00222.

C82U A111C A145C C169G: the reverse-splicing fitness worked out at 0.00983.

In the case of A111U A120U C169U, the reverse-splicing fitness stood at 0.0747.

As for C82U A111G A120U A145C C150G C169A, the reverse-splicing fitness stood at 0.00238.

With C82A C150U C169U U176C, the reverse-splicing fitness stood at 0.016.

C82G A111G A120U A145G C150A C169G: the reverse-splicing fitness was determined as 0.00639.

As to C82A A120C A145U C150U C169G U176C, the reverse-splicing fitness was 0.0198.

On to C82A A111C A120U A145C C169U, for which the reverse-splicing fitness was 0.00399.

For the variant C82G A111U A120U C150U C169A U176C, the reverse-splicing fitness came out at 0.00328.

For the variant C82G A145U C169U U176G, the reverse-splicing fitness was 0.00368.

In the case of A111C A120C A145C C150A C169A, the reverse-splicing fitness was 0.00839.

Turning to C82A A111C A120C A145G C150A C169G U176C, the reverse-splicing fitness turned out to be 0.0238.

C82U A111G A120C A145G C169G U176A: the reverse-splicing fitness is 0.0181.

As to C82U A111G A120C C150A C169G, the reverse-splicing fitness was 0.0102.

With C82U A111U A145U C150A C169G U176G, the reverse-splicing fitness was 0.00594.

For the variant C82G A111U A120C A145U C169U U176C, the reverse-splicing fitness was 0.0158.

Take C82G A111U A120C A145U C169U U176G: the reverse-splicing fitness is 0.00499.

As for C82A A111U A120G A145G C150G C169G U176C, the reverse-splicing fitness stood at 0.0107.

On to A111G A120U A145C C150A C169G, for which the reverse-splicing fitness came out at 0.0049.

Turning to A111C A120U C169U U176G, the reverse-splicing fitness was found to be 0.00263.

With C82G A111C A120U A145G C150A C169U U176C, the reverse-splicing fitness was determined as 0.00449.

Regarding C82G A111C A120U A145G C150A C169U U176G, the reverse-splicing fitness was 0.00259.

On to C82G A120C A145U C150G C169U U176C, for which the reverse-splicing fitness came out at 0.012.

Regarding C82U A111G A120G A145U C150A C169A, the reverse-splicing fitness came to 0.00822.

In the case of C82U A111U A120U C150G C169A U176C, the reverse-splicing fitness worked out at 0.00404.

With C82G A111C A120C A145U C150U C169A U176A, the reverse-splicing fitness worked out at 0.0138.

C82U A111U A145G C169U: the reverse-splicing fitness was found to be 0.0114.

For the variant A120U A145C C150G C169G U176A, the reverse-splicing fitness was 0.00551.

With C82A A111G A120C A145U C169U U176G, the reverse-splicing fitness was 0.00505.

As for C82A A111G A120U C169G U176C, the reverse-splicing fitness was found to be 0.00341.

Take A111C A145U C150A C169A U176A: the reverse-splicing fitness came out at 0.0138.

Turning to C82G A120U A145G C169A U176G, the reverse-splicing fitness was determined as 0.00159.

With C82A A120C A145U C150G C169A, the reverse-splicing fitness was 0.0101.

Regarding C82G A111G A145G C150G C169U U176C, the reverse-splicing fitness is 0.0131.

Regarding C82U A111G A145C C150G C169U U176G, the reverse-splicing fitness was 0.00478.

Take C82G A111U A120G A145U C150G: the reverse-splicing fitness turned out to be 0.00715.

As for C82A A111C A120C A145C C169G U176A, the reverse-splicing fitness is 0.0258.

In the case of C82G A111C C150U U176C, the reverse-splicing fitness amounted to 0.0801.

In the case of C82A A111C A120C C150A U176G, the reverse-splicing fitness was 0.00759.

Turning to C82U A111C A145G C150U C169U, the reverse-splicing fitness stood at 0.00955.

Regarding A111G A120C A145C C150A C169U, the reverse-splicing fitness came out at 0.0193.

For the variant C82U A111U A120C A145G C150G C169A U176G, the reverse-splicing fitness is 0.00845.

Regarding C82U A111C A120C A145G C169U U176G, the reverse-splicing fitness amounted to 0.00573.

As to C82G A111U A120G A145U C150G C169A, the reverse-splicing fitness came to 0.00944.

A111C A120U A145G C150A C169A U176A: the reverse-splicing fitness was 0.0071.

With A111G A120G A145U C150G U176G, the reverse-splicing fitness is 0.00354.

With C82A A111G A120C C169U U176A, the reverse-splicing fitness is 0.016.

As to C82A A120C C150G U176A, the reverse-splicing fitness was determined as 0.00712.

With C82G A111G A120C A145C C150U C169A U176C, the reverse-splicing fitness came to 0.00829.

As for C82A A111G A145U C150U C169A U176G, the reverse-splicing fitness turned out to be 0.00665.

In the case of C82U A120C C169G U176C, the reverse-splicing fitness was 0.0125.

As for C82G C150A C169G, the reverse-splicing fitness was determined as 0.00937.

A120G C169A U176A: the reverse-splicing fitness was found to be 0.112.

C82U A111U C150A C169A U176C: the reverse-splicing fitness was determined as 0.0168.

Turning to C82A A111C A120U A145G C150U C169A U176C, the reverse-splicing fitness was 0.00432.
